Data set [1] deals with T1, B. subtilis DnaG primase (Bacillus subtilis, UniProt P05096).
T1 construct: GST (N); made in house; host or cells: E. coli
The data set is described as follows: Native gel shift assay of primase binding. The conditions noted are these: native gel shift with B. subtilis DnaG primase. As to the method:
Interactions between G40P and B. subtilis DnaG primase were examined using a native gel shift assay. 10 ug of various G40P constructs were mixed with 10 ug primase in a buffer containing 25 mM TrisHCl pH 8.0, 50 mM NaCl, 5 mM MgCl2, and 1 mM ATP-γ-S and incubated for 30 minutes on ice. The protein mixtures were then analyzed by 6% polyacrymamide native gel electrophoresis at 150 voltage for one hour at 4 degrees C. The gel was stained by Coomassie blue for detection.
Background: Mobility shift assays separate free from complexed probe on a gel.

Data set [2] concerns the target T2, B. subtilis DnaG primase (Bacillus subtilis, UniProt P05096 1-603, limits assumed).
T2 construct: Recombinant
T2 sequence (looked up): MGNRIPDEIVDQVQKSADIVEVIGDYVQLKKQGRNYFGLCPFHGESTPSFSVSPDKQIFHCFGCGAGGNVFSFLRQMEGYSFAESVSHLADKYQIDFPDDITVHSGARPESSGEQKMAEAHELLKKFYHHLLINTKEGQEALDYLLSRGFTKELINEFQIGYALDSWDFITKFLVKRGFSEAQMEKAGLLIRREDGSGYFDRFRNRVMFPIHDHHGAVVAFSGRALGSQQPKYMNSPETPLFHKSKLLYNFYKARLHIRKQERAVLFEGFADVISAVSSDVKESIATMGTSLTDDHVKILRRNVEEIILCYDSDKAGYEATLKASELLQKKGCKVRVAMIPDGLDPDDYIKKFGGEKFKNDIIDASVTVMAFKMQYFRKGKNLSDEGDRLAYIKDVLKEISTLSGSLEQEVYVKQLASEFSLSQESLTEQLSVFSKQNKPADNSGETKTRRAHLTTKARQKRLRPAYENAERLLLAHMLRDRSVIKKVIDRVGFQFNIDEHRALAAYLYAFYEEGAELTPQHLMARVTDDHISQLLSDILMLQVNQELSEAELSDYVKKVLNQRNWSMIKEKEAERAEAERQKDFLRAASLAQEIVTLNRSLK
The experiment in a line: native gel shift assay, 10 ug G40P construct with 10 ug primase. The source says: G40P/DnaB replicative helicases bind DnaG primase at the replication fork, this interaction is important for coordinating DNA unwinding by the helicase with RNA primer synthesis by the primase. We investigated the requirement of N-terminal domain of G40P in primase binding using the N-terminal deletions. […] We next examined if the isolated N-terminal domain of G40P can bind primase. The two constructs containing only the N-terminal α-hairpin and N-globe domains (N149 and N171) had no detectable primase binding in native gel shift assays (FIGS. 4d and 11). Both constructs behaved like monomers in gel filtration (data not shown).
Interactions between G40P and B. subtilis DnaG primase were examined using a native gel shift assay. 10 ug of various G40P constructs were mixed with 10 ug primase in a buffer containing 25 mM TrisHCl pH 8.0, 50 mM NaCl, 5 mM MgCl₂, and 1 mM ATP-γ-S and incubated for 30 minutes on ice. The protein mixtures were then analyzed by 6% polyacrymamide native gel electrophoresis at 150 voltage for one hour at 4 degrees C. The gel was stained by Coomassie blue for detection.

The test system of data set [3] is 32P-labeled 60-base oligonucleotide annealed to circular M13mp18 ssDNA. The data set is described as follows: Helicase assay. The conditions noted are these: for helicase activity (in words): compared with wt G40P. It counts as biochemical. The protocol:
The substrate for the helicase assay was prepared by annealing a ^32P-labeled ssDNA (a 60-base oligonucleotide) to the circular M13mp18 ssDNA. This oligonucleotide has 35 nucleotides annealed to the M13 DNA, leaving a 25-nucleotide 5′ overhang. The substrate DNA was incubated with various amounts of different G40P mutant proteins in the presence or absence of primase at 37 degrees C. for 30 minutes in a buffer containing 20 mM Tris-HCl (pH 7.5), 5 mM ATP, 10 mM MgCl2, 1 mM DTT, and 50 mM NaCl. The reaction was terminated by adding a stop solution containing 100 mM EDTA, 0.5% SDS, and 50% glycerol. Samples were analyzed on a 12% native polyacrylamide gel in 1 M Tris/borate/EDTA running buffer. The unwinding of the substrate DNA was detected by autoradiography.

The target of data set [4] is G40P point mutant mt4.

B1: G40P N-terminal fragment N149 (other)
chain: MNPEEKTVMLYNEYAEQAVLGSILTEPELIKECPLTPEHFSPGKHFNIYFTMQDLDRKGQSVDFTSIAARVGEKLPQLGGFGYLTELAASVASTTTFKQHCQTVSEYFQKRKAISIAQQIIENVNESDDGPVKPIQEAVSELMEIEASG
notes: Contains only the N-globe and α-hairpin domains; Limits inferred from the name; Behaved like a monomer in gel filtration
Regarding B1, in data set [1], the primase binding entry is given as “no detectable primase binding”. For the same molecule, in data set [2], the binding result is “no binding”.

B2: G40P N-terminal deletion mutant ΔN129 (enzyme)
chain: GPVKPIQEAVSELMEIEASGTDDDDGSIDEALVTVYEEIESADGNITGVPSGFTELDRMTYGYKRRNFVLIAARPSMGKTAFALKQAKNMSDNDDVVNLHSLEMGKKENIKRLIVTAGSINAQKIKAARRDFASEDWGKLSMAIGEISNSNINIFDKAGQSVNYIWSKTRQTKRKNPGKRVIVMIDYLQLLEPAKANDSRTNQISQISRDLKKMARELDVVVIALSQLSRQVEQRQDKRPMLSDLRESGQLEQDADIIEFLYRDDYYDKESESKNIVEVIIAKHRDGPVGTVSLAFIKEYGNFVNLERRFDDR
notes: Forms hexamers in gel filtration; also called G40P-Δ129; G40P truncated monomer
As to B2, in data set [1], the primase binding result is reported as “devoid of primase binding”. The “helicase activity (in words)” value in data set [3] is recorded as “no detectable helicase activity”. Moreover, in data set [2], the binding result is on record as “no binding”.

B3: G40P N-terminal deletion mutant ΔN92 (enzyme)
chain: STTTFKQHCQTVSEYFQKRKAISIAQQIIENVNESDDGPVKPIQEAVSELMEIEASGTDDDDGSIDEALVTVYEEIESADGNITGVPSGFTELDRMTYGYKRRNFVLIAARPSMGKTAFALKQAKNMSDNDDVVNLHSLEMGKKENIKRLIVTAGSINAQKIKAARRDFASEDWGKLSMAIGEISNSNINIFDKAGQSVNYIWSKTRQTKRKNPGKRVIVMIDYLQLLEPAKANDSRTNQISQISRDLKKMARELDVVVIALSQLSRQVEQRQDKRPMLSDLRESGQLEQDADIIEFLYRDDYYDKESESKNIVEVIIAKHRDGPVGTVSLAFIKEYGNFVNLERRFDDR
notes: Lacks the N-globe and keeps an intact α-hairpin; Forms hexamers in gel filtration
Consider B3, for which the primase binding result in data set [1] is “devoid of primase binding”. Besides, the “helicase activity retained, of the wt activity” value in data set [3] (absence of primase, relative to full-length (wt) G40P) is given as ~66%. In addition, in data set [2], the binding result was “no binding”.

B4: G40P N-terminal deletion mutant ΔN108 (enzyme)
chain: QKRKAISIAQQIIENVNESDDGPVKPIQEAVSELMEIEASGTDDDDGSIDEALVTVYEEIESADGNITGVPSGFTELDRMTYGYKRRNFVLIAARPSMGKTAFALKQAKNMSDNDDVVNLHSLEMGKKENIKRLIVTAGSINAQKIKAARRDFASEDWGKLSMAIGEISNSNINIFDKAGQSVNYIWSKTRQTKRKNPGKRVIVMIDYLQLLEPAKANDSRTNQISQISRDLKKMARELDVVVIALSQLSRQVEQRQDKRPMLSDLRESGQLEQDADIIEFLYRDDYYDKESESKNIVEVIIAKHRDGPVGTVSLAFIKEYGNFVNLERRFDDR
notes: Limits inferred from the name, by analogy with ΔN129 = residues 130-442; Forms hexamers in gel filtration
Take B4: in data set [1], the primase binding result is given as “devoid of primase binding”. Further, the “helicase activity (in words)” value in data set [3] is “no detectable helicase activity”. Further, the binding result in data set [2] is “no binding”.

B5: G40P N-terminal fragment N171 (other)
chain: MNPEEKTVMLYNEYAEQAVLGSILTEPELIKECPLTPEHFSPGKHFNIYFTMQDLDRKGQSVDFTSIAARVGEKLPQLGGFGYLTELAASVASTTTFKQHCQTVSEYFQKRKAISIAQQIIENVNESDDGPVKPIQEAVSELMEIEASGTDDDDGSIDEALVTVYEEIESA
notes: as for B1
With B5, in data set [1], the primase binding entry is “no detectable primase binding”. Also, in data set [2], the binding result was “no binding”.

B6: B. subtilis DnaG primase (protein)
chain: MGNRIPDEIVDQVQKSADIVEVIGDYVQLKKQGRNYFGLCPFHGESTPSFSVSPDKQIFHCFGCGAGGNVFSFLRQMEGYSFAESVSHLADKYQIDFPDDITVHSGARPESSGEQKMAEAHELLKKFYHHLLINTKEGQEALDYLLSRGFTKELINEFQIGYALDSWDFITKFLVKRGFSEAQMEKAGLLIRREDGSGYFDRFRNRVMFPIHDHHGAVVAFSGRALGSQQPKYMNSPETPLFHKSKLLYNFYKARLHIRKQERAVLFEGFADVISAVSSDVKESIATMGTSLTDDHVKILRRNVEEIILCYDSDKAGYEATLKASELLQKKGCKVRVAMIPDGLDPDDYIKKFGGEKFKNDIIDASVTVMAFKMQYFRKGKNLSDEGDRLAYIKDVLKEISTLSGSLEQEVYVKQLASEFSLSQESLTEQLSVFSKQNKPADNSGETKTRRAHLTTKARQKRLRPAYENAERLLLAHMLRDRSVIKKVIDRVGFQFNIDEHRALAAYLYAFYEEGAELTPQHLMARVTDDHISQLLSDILMLQVNQELSEAELSDYVKKVLNQRNWSMIKEKEAERAEAERQKDFLRAASLAQEIVTLNRSLK
For the molecule B6, in data set [4], the “primase-mediated stimulation of the ATPase and helicase activity of G40P” value was “mt4 displayed much reduced primase-mediated stimulation of the ATPase and helicase activity of G40P”.

B7: G40P N-terminal deletion mutant ΔN112 (enzyme)
chain: AISIAQQIIENVNESDDGPVKPIQEAVSELMEIEASGTDDDDGSIDEALVTVYEEIESADGNITGVPSGFTELDRMTYGYKRRNFVLIAARPSMGKTAFALKQAKNMSDNDDVVNLHSLEMGKKENIKRLIVTAGSINAQKIKAARRDFASEDWGKLSMAIGEISNSNINIFDKAGQSVNYIWSKTRQTKRKNPGKRVIVMIDYLQLLEPAKANDSRTNQISQISRDLKKMARELDVVVIALSQLSRQVEQRQDKRPMLSDLRESGQLEQDADIIEFLYRDDYYDKESESKNIVEVIIAKHRDGPVGTVSLAFIKEYGNFVNLERRFDDR
notes: as for B4
For B7, in data set [1], the primase binding entry is on record as “devoid of primase binding”. Besides, the “helicase activity (in words)” value in data set [3] is “no detectable helicase activity”. In addition, in data set [2], the binding result was “no binding”.

Source of the values: patent publication US20090215075A1, “THREE-DIMENSIONAL STRUCTURE OF A DNAB-FAMILY R[…] (G40P), USES THEREOF, AND METHODS FOR […]-BACTERIAL PATHOGENS BY […] HELICASES AND THE INTERACTIONS OF DNAB HELICASE WITH PRIMASE” (priority 2007, published 2009).
